These results are taken from paper PMC9841404, “Werner syndrome protein works as a dimer for unwinding and replication fork regression”.

Series [1] has as its target T1, f:GFP-WRN (Werner syndrome protein) (Homo sapiens, UniProt Q14191 1-1432). Briefly: single-molecule TIRF GFP photobleaching; no ATP; dimer preferred, heterogeneous up to 4 steps; 1 nM RPA did not change conclusion; Binding buffer, pH and temperature not in the material; 24 nM GFP-WRN in the forked-DNA unwinding assay (1 nM RPA); NaCl tested at 15, 50 and 150 mM on the replication fork; GFP imaging without oxygen scavenger. To be noted: protein: recombinant; tags: N-terminal FLAG and GFP; chain copies: 2; label: Cy3 and Cy5 in the single-stranded overhangs; 5' biotin on bottom strand; fork 1:2, 3' ssDNA arm on top and 5' ssDNA arm on bottom.

The target in series [2] is T1, f:GFP-WRN (Werner syndrome protein). Briefly: single-molecule TIRF GFP photobleaching; no ATP; tetramer (binomial n=4); Binding buffer, pH and temperature not in the material; 24 nM GFP-WRN in the forked-DNA unwinding assay (1 nM RPA); NaCl tested at 15, 50 and 150 mM on the replication fork; GFP imaging without oxygen scavenger. The settings on record: protein: recombinant; tags: N-terminal FLAG and GFP; chain copies: 2; label: Cy3 and Cy5 FRET pair; 5' biotin on leading parent; four-strand fork 1:3 2:4 3:4; 11-nt leading gap, 2-nt lagging gap; heterologous bases near junction.

The target is the same in series [3]. The experiment in a line: single-molecule TIRF GFP photobleaching; 1 mM ATP-Mg2+, 2 min; active molecules dimeric; Binding buffer, pH and temperature not in the material; 24 nM GFP-WRN in the forked-DNA unwinding assay (1 nM RPA); NaCl tested at 15, 50 and 150 mM on the replication fork; GFP imaging without oxygen scavenger. To be noted: protein: recombinant; tags: N-terminal FLAG and GFP; chain copies: 2; label: Cy3 and Cy5 FRET pair; 5' biotin on leading parent; four-strand fork 1:3 2:4 3:4; heterologous distal arm ends.

T1 sequence (Q14191 whole entry): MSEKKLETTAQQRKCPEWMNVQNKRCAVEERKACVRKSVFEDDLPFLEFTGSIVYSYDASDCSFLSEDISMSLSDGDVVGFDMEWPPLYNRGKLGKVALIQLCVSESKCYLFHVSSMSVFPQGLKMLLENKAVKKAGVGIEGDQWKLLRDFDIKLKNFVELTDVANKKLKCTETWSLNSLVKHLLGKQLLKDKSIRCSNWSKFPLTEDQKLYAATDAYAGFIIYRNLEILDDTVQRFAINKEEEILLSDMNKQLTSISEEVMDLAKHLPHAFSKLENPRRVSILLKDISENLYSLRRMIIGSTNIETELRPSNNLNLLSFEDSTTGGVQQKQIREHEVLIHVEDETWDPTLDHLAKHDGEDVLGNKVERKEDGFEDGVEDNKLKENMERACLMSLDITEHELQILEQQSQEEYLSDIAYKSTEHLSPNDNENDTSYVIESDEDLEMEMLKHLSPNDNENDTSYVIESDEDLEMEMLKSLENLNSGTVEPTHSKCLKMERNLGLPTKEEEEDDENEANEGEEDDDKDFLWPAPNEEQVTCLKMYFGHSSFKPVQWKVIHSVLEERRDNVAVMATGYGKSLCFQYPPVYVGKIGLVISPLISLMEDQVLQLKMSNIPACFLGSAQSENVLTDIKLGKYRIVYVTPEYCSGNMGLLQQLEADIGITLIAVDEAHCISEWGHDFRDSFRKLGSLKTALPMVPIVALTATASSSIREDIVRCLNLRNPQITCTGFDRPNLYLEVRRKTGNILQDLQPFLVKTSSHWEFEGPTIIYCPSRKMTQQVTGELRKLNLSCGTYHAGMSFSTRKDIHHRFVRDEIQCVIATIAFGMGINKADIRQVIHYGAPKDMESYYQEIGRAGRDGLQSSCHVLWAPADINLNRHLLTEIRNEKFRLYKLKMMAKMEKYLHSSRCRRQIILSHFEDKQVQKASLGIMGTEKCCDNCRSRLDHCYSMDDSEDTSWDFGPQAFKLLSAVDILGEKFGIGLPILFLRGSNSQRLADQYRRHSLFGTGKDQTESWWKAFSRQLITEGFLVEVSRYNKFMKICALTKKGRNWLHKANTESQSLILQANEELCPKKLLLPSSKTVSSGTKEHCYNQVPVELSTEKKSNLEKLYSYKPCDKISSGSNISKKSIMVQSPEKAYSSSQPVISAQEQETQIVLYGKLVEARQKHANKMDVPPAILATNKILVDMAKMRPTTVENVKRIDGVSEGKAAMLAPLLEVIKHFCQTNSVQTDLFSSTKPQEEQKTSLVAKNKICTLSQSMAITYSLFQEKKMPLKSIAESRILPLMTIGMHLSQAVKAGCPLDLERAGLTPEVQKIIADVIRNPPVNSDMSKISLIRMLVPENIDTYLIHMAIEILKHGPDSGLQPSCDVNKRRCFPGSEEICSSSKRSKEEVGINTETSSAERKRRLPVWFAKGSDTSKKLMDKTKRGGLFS

B1: Forked DNA (Figure 1A) (structured_DNA)
DNA 1: GAGAAGCACGCTGCCGAATTCTACCAGTGCCTTGCTAGGACATGTTTGCCTTTTTTTTTTTTTTTTTTTTTTTTTTTTTT
DNA 2: TTTTTTTTTTTTTTTTTTTTTTTTGGCAAACATGTCCTAGCAAGGCACTGGTAGAATTCGGCAGCGTGCTTCTC
modifications: amino C6 dT at dye sites
Take B1: the binding result in series [1] is recorded as “binds”.

B2: Model replication fork (Figure 1B) (structured_DNA)
DNA 1: TCGACAGGTCATGGCCGTACATGATATCCTCGAGCGGTCCTGTTGCAACTTA
DNA 2: TCAGAGTGTTAAGTTGCAACAGGACCGCTCGAGGATATCATGTACGGCCATGACCTGTCG
DNA 3: TGTTAACCCTAACCCTAAGAATTCGGCTTAAGTGAGTGTTAAGTTGCAACAGGACCGCTCGAGGATATCATGTACGGCCATGACCTGTCGA
DNA 4: CGACAGGTCATGGCCGTACATGATATCCTCGAGCGGTCCTGTTGCAACTTAACACTCTGAATAGCCGAATTCTTAGGGTTAGGGTTAACA
modifications: amino C6 dT at dye sites of the daughter strands
Regarding B2, the binding result in series [2] is recorded as “binds”.

B3: Replication fork with 15 bp non-homologous region (Figure 3D) (structured_DNA)
DNA 1: TCGACAGGTCATGGCCGTACATGATATCCTCGAGCGGTCCTGTTGC
DNA 2: TCAGAGTGTGCAACAGGACCGCTCGAGGATATCATGTACGATAGCTTGGCCGCAT
DNA 3: TGTTAACCCTAACCCTAAGAATTCGGCTTAAGTGAGTGTGCAACAGGACCGCTCGAGGATATCATGTACGGCCATGACCTGTCGA
DNA 4: ATGCGGCCAAGCTATCGTACATGATATCCTCGAGCGGTCCTGTTGCACACTCTGAATAGCCGAATTCTTAGGGTTAGGGTTAACA
modifications: amino C6 dT at dye sites of the daughter strands
On to B3, for which the binding result in series [3] is given as “binds”.
